Results published in IntAct's records for PubMed 19318624.

B1: Glycogen accumulation regulator GarA (Mycobacterium tuberculosis (strain ATCC 25618 / P9WJA9 (parent)
chain: MTDMNPDIEKDQTSDEVTVETTSVFRADFLSELDAPAQAGTESAVSGVEGLPPGSALLVVKRGPNAGSRFLLDQAITSAGRHPDSDIFLDDVTVSRRHAEFRLENNEFNVVDVGSLNGTYVNREPVDSAVLANGDEVQIGKFRLVFLTGPKQGEDDGSTGGP
B2: Glycogen accumulation regulator GarA (Mycobacterium tuberculosis (strain ATCC 25618 / P9WJA9 (parent)
chain: B1 chain
partner: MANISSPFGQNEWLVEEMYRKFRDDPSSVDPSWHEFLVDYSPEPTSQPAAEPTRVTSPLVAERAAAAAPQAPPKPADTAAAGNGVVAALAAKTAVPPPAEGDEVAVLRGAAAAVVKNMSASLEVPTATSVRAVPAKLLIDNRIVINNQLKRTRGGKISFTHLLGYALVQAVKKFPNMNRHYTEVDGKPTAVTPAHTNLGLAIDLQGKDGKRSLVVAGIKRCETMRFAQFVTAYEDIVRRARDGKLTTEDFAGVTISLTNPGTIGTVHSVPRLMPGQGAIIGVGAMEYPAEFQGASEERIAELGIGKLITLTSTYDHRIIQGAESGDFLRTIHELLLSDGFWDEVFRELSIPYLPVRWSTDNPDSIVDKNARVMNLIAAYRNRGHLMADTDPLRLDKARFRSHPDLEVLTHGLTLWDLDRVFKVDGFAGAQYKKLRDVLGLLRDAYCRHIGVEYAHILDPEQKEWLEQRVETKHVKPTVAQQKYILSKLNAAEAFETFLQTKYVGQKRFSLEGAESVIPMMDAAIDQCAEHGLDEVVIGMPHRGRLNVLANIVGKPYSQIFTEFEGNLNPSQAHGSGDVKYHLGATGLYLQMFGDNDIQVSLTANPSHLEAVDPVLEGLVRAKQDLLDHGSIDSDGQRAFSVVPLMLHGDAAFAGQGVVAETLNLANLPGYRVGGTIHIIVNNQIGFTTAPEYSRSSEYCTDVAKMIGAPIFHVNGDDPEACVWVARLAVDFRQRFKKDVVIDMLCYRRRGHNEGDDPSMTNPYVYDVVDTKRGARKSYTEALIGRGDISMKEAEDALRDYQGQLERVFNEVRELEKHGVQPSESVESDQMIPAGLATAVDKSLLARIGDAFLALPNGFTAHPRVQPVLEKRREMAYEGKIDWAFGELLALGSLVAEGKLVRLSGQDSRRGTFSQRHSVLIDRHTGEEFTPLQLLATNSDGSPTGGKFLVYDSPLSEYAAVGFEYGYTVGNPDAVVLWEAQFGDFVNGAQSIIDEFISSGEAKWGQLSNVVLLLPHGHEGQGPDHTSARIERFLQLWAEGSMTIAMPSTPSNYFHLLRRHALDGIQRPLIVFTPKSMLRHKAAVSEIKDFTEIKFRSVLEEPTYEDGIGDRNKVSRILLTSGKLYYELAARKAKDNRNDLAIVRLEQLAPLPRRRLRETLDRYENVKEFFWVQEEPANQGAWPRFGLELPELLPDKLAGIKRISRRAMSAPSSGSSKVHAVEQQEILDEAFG

Variants of: B1
Settings: with gltb_myctu gltB

Variant | effect of a mutation on the interaction
K141E | disrupting interaction
S95A | disrupting interaction
N117A | disrupting interaction

Variants of: B1
Settings: with dhe2_myctu gdh

Variant | effect of a mutation on the interaction
K141E | disrupting interaction
R143E | disrupting interaction
S95A | decreasing interaction

Variants of: B1
Settings: with dhe2_myctu gdh
Remark: another data set of the same source

Variant | effect of a mutation on the interaction
N117A | decreasing interaction

Variants of: B2
Settings: with kgd_myctu kgd

Variant | effect of a mutation on the interaction
N117A | disrupting interaction
K141E | disrupting interaction
R143E | disrupting interaction
